The text below walks through data of patent US7897569B2, “Use of HMGB fragments as anti-inflammatory agents” (The Feinstein Institute for Medical Research, priority 2001, dated 2011).

Marks after values point to notes of the source that are not given here. A value given as a limit tells only on which side of the number the result lay.

Data set [1] concerns D-galactosamine-sensitized Balb/c mice. Briefly: Toxicity in D-galactosamine-sensitized Balb/c mice (survival). It counts as in vivo. How it is done:
The D-galactosamine-sensitized model has been described previously (Galanos et al., Proc Natl. Acad. Sci. USA 76: 5939-5943, 1979; and Lehmann et al., J. Exp. Med. 165: 657-663, 1997). Mice were injected intraperitoneally with 20 mg D-galactosamine-HCL (Sigma)/mouse (in 200 μl PBS) and 0.1 or 1 mg of either HMGB1 B box or vector protein (in 200 μl PBS). Mortality was recorded daily for up to 72 hours after injection; survivors were followed for 2 weeks, and no later deaths from B box toxicity were observed.
To investigate whether the HMGB1 B box has cytokine activity in vivo, we administered HMGB1 B box protein to unanesthetized Balb/c mice sensitized with D-galactosamine (D-gal), a model that is widely used to study cytokine toxicity (Galanos et al., supra). Briefly, mice (20-25 gram, male, Harlan Sprague-Dawley, Indianapolis, Ind.) were intraperitoneally injected with D-gal (20 mg) (Sigma) and B box (0.1 mg/ml/mouse or 1 mg/ml/mouse) or GST tag (vector; 0.1 mg/ml/mouse or 1 mg/ml/mouse), as indicated in Table 1. Survival of the mice was monitored up to 7 days to ensure no late death occurred.

A further data set relates to RAW 264.7 cells. Briefly: 125I-HMGB1 cell surface binding to RAW 264.7 cells. Details: species or system murine. Particulars: 4° C. The method, then:
Purified HMGB1 protein (10 μg) was radiolabeled with 0.2 mCi of carrier-free ^125I (NEN Life Science products Inc., Boston, Mass.) using Iodo-beads (Pierce, Rockford, Ill.) according to the manufacturer's instructions. ^125I-HMGB1 protein was separated from un-reacted ^125I by gel chromatography columns (P6 Micro Bio-Spin Chromatography Columns, Bio-Rad Laboratories, Hercules, Calif.) previously equilibrated with 300 mM sodium chloride, 17.5 mM sodium citrate, pH 7.0 and 0.1% bovine serum albumin (BSA). The specific activity of the eluted HMGB1 was about 2.8×10^6 cpm/μg protein. […] The radioactivity in the lysate was then measured using a gamma counter. Specific binding was determined as total binding minus the radioactivity obtained in the presence of an excess amount of unlabeled HMGB1 or A box proteins.
To determine whether the HMGB1 A box acts as an antagonist by displacing HMGB1 binding, ^125I-labeled-HMGB1 was added to macrophage cultures and binding was measured at 4° C. after 2 hours. […] The specificity of binding was assessed as described in Example 1.
In addition, ^125I-HMG-1 binding was measured in RAW 264.7 cells plated on 24-well dishes and incubated with ^125I HMGB1 alone or in the presence of unlabeled HMGB1 or A box. […] The data are expressed as the percent of total counts obtained in the absence of unlabeled HMGB1 proteins (2,382,179 CPM/well).

B1: B box: Human HMGB1 mutant containing only the B box, SEQ ID NO:20 (protein)
chain: FKDPNAPKRLPSAFFLFCSEYRPKIKGEHPGLSIGDVAKKLGEMWNNTAADDKQPYEKKAAKLKEKYEKDIAAY
As to B1, the Alive/total is 6/6 in data set [1] (0.1 mg/mouse ip with D-gal 20 mg) and 2/8* in data set [1] (1 mg/mouse ip with D-gal 20 mg). For the same molecule, the lethality result in data set [1] (D-galactosamine-sensitized mice) is reported as “lethal to D-galactosamine-sensitized mice in a dose-dependent manner”. In addition, the time to death in data set [1] (instances in which death occurred) is ≤ 12 h.

B2: A box: Human HMGB1 mutant containing only the A box, SEQ ID NO:21 (A box SEQ ID NO:22) (protein)
chain: MGKGDPKKPTGKMSSYAFFVQTCREEHKKKHPDASVNFSEFSKKCSERWKTMSAKEKGKFEDMAKADKARYEREMKTYIPPKGET
Turning to B2, in the data set with RAW 264.7 cells (5,000 molar excess unlabeled A box, 2 hours), the “displacement of 125I-HMGB1 binding” value is listed as “competitive antagonist of HMGB1 activity in vitro”.

B3: HMGB1: Recombinant full length human HMGB1, GST fusion system, SEQ ID NO:18; recombinant rat HMGB1 used in some experiments (protein)
chain: MGKGDPKKPTGKMSSYAFFVQTCREEHKKKHPDASVNFSEFSKKCSERWKTMSAKEKGKFEDMAKADKARYEREMKTYIPPKGETKKKFKDPNAPKRLPSAFFLFCSEYRPKIKGEHPGLSIGDVAKKLGEMWNNTAADDKQPYEKKAAKLKEKYEKDIAAYRAKGKPDAAKKGVVKAEKSKKKKEEEEDEEDEEDEEEEEDEEDEEDEEEDDDDE
modifications: GST fusion
notes: recombinant rat HMGB1 used in some experiments
On to B3, for which the 125I-HMGB1 binding kinetics result in the data set on RAW 264.7 cells (RAW 264.7 cells) is reported as “saturable first order binding kinetics”.
